The source of these data is article PMC2171414.

Common to all, as to assay: co-IP
For assay [1], the target named is Caf4p-HTM (S. cerevisiae) (UniProt P36130).
Assay [2] concerns the target Mdv1p-HTM (S. cerevisiae) (UniProt P47025).
Assay [3] deals with M3TH-Fis1p (3XMyc/TEV/His8-Fis1p) (S. cerevisiae) (UniProt P40515).
Chain of UniProt P40515 (P40515 whole entry): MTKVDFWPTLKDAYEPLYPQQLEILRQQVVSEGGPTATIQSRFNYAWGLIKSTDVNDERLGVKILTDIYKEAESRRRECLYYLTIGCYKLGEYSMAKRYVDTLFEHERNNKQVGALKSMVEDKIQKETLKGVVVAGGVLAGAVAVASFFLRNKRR

In turn, “Caf4p-HA (Caf4p wt, residues 1–659) (from UniProt P36130 1-643) (natural protein)” showed a percent coimmunoprecipitated in assay [1] of 5%. The percent coprecipitated in assay [2] is 1%; in assay [3], 5%.
“Caf4p-N-HA (residues 1–274) (from UniProt P36130 1-274) (domain or fragment)” came in with a percent coimmunoprecipitated in assay [1] of 5%. The molecule further returned a percent coprecipitated in assay [2] of 1%.

B1: Mdv1p-HA (Mdv1 wt, residues 1–714) (natural protein)
chain: MSVNDQITHIGKTLSTTASAFLNYQKSNSNTQDVLTNNGPYKNLLSNTVNNASSTSYFYKRTEHGRFVKNASNTFEDIYSKTRRGDVFRNKFTDNKTCFRMLTYISDDLLNEIPTKEGLKSDADGKLLTEGGENENLRKNASKKETSLFQGFKSYLPIAELAIENTERLNYDTNGTSGTVGAKDVMSKTNERDEIHTELPNFQDSFLIPPGVETKKISSSYSPSALKSFSQTLVNSLEFLNIQKNSTLSEIRDIEVEVENLRQKKEKLLGKIANIEQNQLLLEDNLKQIDDRLDFLEEYGLEVIEANSDENAEDDGMSERKALKNDAIRNEGVTTESISSEASNLPPRRRQQLRDDNSLNRLGAFYSKSKKRHRKSFPTFQQLYEPGTKIGSIMSTHDDFLTCLDFDAPFGTLCTAGYLDHTVKIWDLSKQNKIGELAGHLATINCMQINRDYGTLVTGGRDAALKLWNLNLAQQLYQETQNLTSPTNHIDSPCVHTFEAHTDEVTALSLDPSFLVSGSQDRTIRQWDLRSGKCLQTIDLSFANVLTTSTNVDLSKSTLLTQRNERPSIGALQSFDAALATGTKDGVVRLWDLRSGKVIRTLKGHTDAITSLKFDSACLVTGSYDRTVRIWDLRTGLLNKFHAYSAPVLSLDLFQENAAVVVADEPSVQIYDSEKDESWSCVEQGNETSVSTVKYKENYMVEGRENGDVNIWAV
B1 showed a percent coprecipitated in assay [1] of 1%.

B2: Mdv1p-N-HA (residues 1–300) (domain or fragment)
chain: MSVNDQITHIGKTLSTTASAFLNYQKSNSNTQDVLTNNGPYKNLLSNTVNNASSTSYFYKRTEHGRFVKNASNTFEDIYSKTRRGDVFRNKFTDNKTCFRMLTYISDDLLNEIPTKEGLKSDADGKLLTEGGENENLRKNASKKETSLFQGFKSYLPIAELAIENTERLNYDTNGTSGTVGAKDVMSKTNERDEIHTELPNFQDSFLIPPGVETKKISSSYSPSALKSFSQTLVNSLEFLNIQKNSTLSEIRDIEVEVENLRQKKEKLLGKIANIEQNQLLLEDNLKQIDDRLDFLEEYG
For the molecule B2, in assay [1], the percent coprecipitated amounted to 1%.
